# Assay results reported in the Human Domainome abundance scans (Beltran et al. 2025).
# ± gives the uncertainty stated by the source.
# B1: SWI/SNF complex subunit SMARCC1, residues 620 to 663; numbered along this chain, Q92922 (parent)
# chain: GREWTEQETLLLLEALEMYKDDWNKVSEHVGSRTQDECILHFLR
# Variants of: B1
# Assay: abundance fitness (aPCA) (normalised: wild type 0, dead -1); higher = more abundant; growth selection in yeast, the domain comes from the species named
# Details: Homo sapiens
row,Variant,abundance fitness
1,GREWTEQETLLLLEALEMKKDDWNKVSEHVGSRTQDECILHFLR [Y19K],-0.263 ± 0.14
2,GREWTEQETLLLLEALEMLKDDWNKVSEHVGSRTQDECILHFLR [Y19L],-0.776 ± 0.19
3,GREWTEQETLLLLEALEMMKDDWNKVSEHVGSRTQDECILHFLR [Y19M],-0.62 ± 0.16
4,GREWTEQETLLLLEALEMPKDDWNKVSEHVGSRTQDECILHFLR [Y19P],-0.952 ± 0.19
5,GREWTEQETLLLLEALEMQKDDWNKVSEHVGSRTQDECILHFLR [Y19Q],-0.423 ± 0.13
6,GREWTEQETLLLLEALEMRKDDWNKVSEHVGSRTQDECILHFLR [Y19R],-0.55 ± 0.086
7,GREWTEQETLLLLEALEMSKDDWNKVSEHVGSRTQDECILHFLR [Y19S],-0.362 ± 0.097
8,GREWTEQETLLLLEALEMTKDDWNKVSEHVGSRTQDECILHFLR [Y19T],-0.298 ± 0.087
9,GREWTEQETLLLLEALEMVKDDWNKVSEHVGSRTQDECILHFLR [Y19V],-0.69 ± 0.18
10,GREWTEQETLLLLEALEMWKDDWNKVSEHVGSRTQDECILHFLR [Y19W],-0.081 ± 0.075
11,GREWTEQETLLLLEALEMYADDWNKVSEHVGSRTQDECILHFLR [K20A],-0.139 ± 0.064
12,GREWTEQETLLLLEALEMYCDDWNKVSEHVGSRTQDECILHFLR [K20C],-0.375 ± 0.09
13,GREWTEQETLLLLEALEMYDDDWNKVSEHVGSRTQDECILHFLR [K20D],-0.062 ± 0.1
14,GREWTEQETLLLLEALEMYEDDWNKVSEHVGSRTQDECILHFLR [K20E],-0.085 ± 0.1
15,GREWTEQETLLLLEALEMYFDDWNKVSEHVGSRTQDECILHFLR [K20F],-0.226 ± 0.11
16,GREWTEQETLLLLEALEMYGDDWNKVSEHVGSRTQDECILHFLR [K20G],-0.188 ± 0.06
17,GREWTEQETLLLLEALEMYHDDWNKVSEHVGSRTQDECILHFLR [K20H],0.021 ± 0.1
18,GREWTEQETLLLLEALEMYIDDWNKVSEHVGSRTQDECILHFLR [K20I],-0.019 ± 0.1
19,GREWTEQETLLLLEALEMYLDDWNKVSEHVGSRTQDECILHFLR [K20L],-0.618 ± 0.089
20,GREWTEQETLLLLEALEMYMDDWNKVSEHVGSRTQDECILHFLR [K20M],-0.118 ± 0.12

row,Variant,abundance fitness
1,GREWTEQETLLLLEALEMYNDDWNKVSEHVGSRTQDECILHFLR [K20N],-0.105 ± 0.11
2,GREWTEQETLLLLEALEMYPDDWNKVSEHVGSRTQDECILHFLR [K20P],0.058 ± 0.064
3,GREWTEQETLLLLEALEMYQDDWNKVSEHVGSRTQDECILHFLR [K20Q],-0.278 ± 0.086
4,GREWTEQETLLLLEALEMYRDDWNKVSEHVGSRTQDECILHFLR [K20R],-0.234 ± 0.062
5,GREWTEQETLLLLEALEMYSDDWNKVSEHVGSRTQDECILHFLR [K20S],-0.2 ± 0.059
6,GREWTEQETLLLLEALEMYTDDWNKVSEHVGSRTQDECILHFLR [K20T],-0.14 ± 0.073
7,GREWTEQETLLLLEALEMYVDDWNKVSEHVGSRTQDECILHFLR [K20V],-0.123 ± 0.062
8,GREWTEQETLLLLEALEMYWDDWNKVSEHVGSRTQDECILHFLR [K20W],-0.737 ± 0.13
9,GREWTEQETLLLLEALEMYKADWNKVSEHVGSRTQDECILHFLR [D21A],-0.066 ± 0.068
10,GREWTEQETLLLLEALEMYKEDWNKVSEHVGSRTQDECILHFLR [D21E],0.225 ± 0.071
11,GREWTEQETLLLLEALEMYKGDWNKVSEHVGSRTQDECILHFLR [D21G],-0.046 ± 0.088
12,GREWTEQETLLLLEALEMYKHDWNKVSEHVGSRTQDECILHFLR [D21H],0.102 ± 0.087
13,GREWTEQETLLLLEALEMYKIDWNKVSEHVGSRTQDECILHFLR [D21I],-0.601 ± 0.34
14,GREWTEQETLLLLEALEMYKKDWNKVSEHVGSRTQDECILHFLR [D21K],0.294 ± 0.076
15,GREWTEQETLLLLEALEMYKMDWNKVSEHVGSRTQDECILHFLR [D21M],-0.363 ± 0.17
16,GREWTEQETLLLLEALEMYKNDWNKVSEHVGSRTQDECILHFLR [D21N],0.227 ± 0.16
17,GREWTEQETLLLLEALEMYKPDWNKVSEHVGSRTQDECILHFLR [D21P],0.019 ± 0.13
18,GREWTEQETLLLLEALEMYKQDWNKVSEHVGSRTQDECILHFLR [D21Q],0.067 ± 0.08
19,GREWTEQETLLLLEALEMYKRDWNKVSEHVGSRTQDECILHFLR [D21R],0.268 ± 0.059
20,GREWTEQETLLLLEALEMYKSDWNKVSEHVGSRTQDECILHFLR [D21S],-0.078 ± 0.088

row,Variant,abundance fitness
1,GREWTEQETLLLLEALEMYKTDWNKVSEHVGSRTQDECILHFLR [D21T],-0.17 ± 0.14
2,GREWTEQETLLLLEALEMYKVDWNKVSEHVGSRTQDECILHFLR [D21V],-0.419 ± 0.094
3,GREWTEQETLLLLEALEMYKWDWNKVSEHVGSRTQDECILHFLR [D21W],-0.578 ± 0.23
4,GREWTEQETLLLLEALEMYKDAWNKVSEHVGSRTQDECILHFLR [D22A],-0.447 ± 0.096
5,GREWTEQETLLLLEALEMYKDCWNKVSEHVGSRTQDECILHFLR [D22C],-0.122 ± 0.098
6,GREWTEQETLLLLEALEMYKDEWNKVSEHVGSRTQDECILHFLR [D22E],-0.017 ± 0.1
7,GREWTEQETLLLLEALEMYKDGWNKVSEHVGSRTQDECILHFLR [D22G],-0.419 ± 0.097
8,GREWTEQETLLLLEALEMYKDHWNKVSEHVGSRTQDECILHFLR [D22H],-0.264 ± 0.14
9,GREWTEQETLLLLEALEMYKDIWNKVSEHVGSRTQDECILHFLR [D22I],-0.733 ± 0.17
10,GREWTEQETLLLLEALEMYKDLWNKVSEHVGSRTQDECILHFLR [D22L],-0.44 ± 0.12
11,GREWTEQETLLLLEALEMYKDQWNKVSEHVGSRTQDECILHFLR [D22Q],-0.112 ± 0.073
12,GREWTEQETLLLLEALEMYKDSWNKVSEHVGSRTQDECILHFLR [D22S],0.04 ± 0.1
13,GREWTEQETLLLLEALEMYKDTWNKVSEHVGSRTQDECILHFLR [D22T],-0.581 ± 0.33
14,GREWTEQETLLLLEALEMYKDVWNKVSEHVGSRTQDECILHFLR [D22V],-0.526 ± 0.14
15,GREWTEQETLLLLEALEMYKDYWNKVSEHVGSRTQDECILHFLR [D22Y],-0.714 ± 0.16
16,GREWTEQETLLLLEALEMYKDDANKVSEHVGSRTQDECILHFLR [W23A],-0.712 ± 0.12
17,GREWTEQETLLLLEALEMYKDDCNKVSEHVGSRTQDECILHFLR [W23C],-0.48 ± 0.089
18,GREWTEQETLLLLEALEMYKDDDNKVSEHVGSRTQDECILHFLR [W23D],-0.374 ± 0.15
